Data: PMC2944823, “Structural Basis for the Secretion of EvpC: A Key Type VI Secretion System Protein from Edwardsiella tarda” (PLoS ONE, 2010)
Where “and” joins values, the source holds several entries; their conditions need not be identical. Equal entries are not always repeated.

What was measured:
[1] = target: the molecule itself; test: dynamic light scattering; DynaPro instrument, room temperature, EvpC at 6 mg/ml; polydispersity 5%
[2] = target: the molecule itself; test: AUC; sedimentation velocity, ~2 mg/ml (methods: 2.5 mg/ml), 10 mM Tris-HCl pH 7.0, 200 mM NaCl, with and without DTT, 40,000 rpm, 20°C, absorbance at 280 nm, Sedfit; self-association, dimer and hexamer
[3] = target: the molecule itself; test: SEC; gel filtration (Hiload 16/60 Superdex 75) of EvpC wild type and mutants at 2 mg/ml; self-association, hexamer

| Protein | stoichiometry N [1] | stoichiometry N [2] | stoichiometry N [3] |
| --- | --- | --- | --- |
| EvpC from Edwardsiella tarda PPD130/91, wild type, recombinant with 6His tag at C terminus (pETMevpC) (natural protein, selenomethionine (cells grown in defined M9 medium supplemented with 25 mg/L SelMet), EvpC, Hcp homolog of the type VI secretion system (EVP cluster), Edwardsiella tarda PPD130/91; evpC gene amplified from genomic DNA; crystal model holds Ala2 to Lys163; K161-K163 are called the C-terminal residues and the model ends at Lys163, so the whole protein (163 residues) is likely. pETM is a pET32 derivative; no other vector-derived residues are told; also called wild type EvpC; Hcp …) MAFDTYIKLDKVDGESTDDKHKKWIEVLGFAWGAGNECTMESGTQGLNTGKAMMSVLRVTKWMDCASVKLASAAVQGQNFPTLELEICTQAGDKFAFCIYKFTHVAVSSYQCSGATGGSDRPQETIDFAYKEVTWEYVPQDQNGKAGGKIGPEGWSLITNKKK | 12 | 2 and 6 |  |
| EvpC D4A E15A double mutant, 6His tag at C terminus (pETMevpC D4AE15A) (natural protein, EvpC, Edwardsiella tarda PPD130/91, with D4 and E15 substituted with Ala; The text speaks only of 'double' mutants for the gel filtration; source: expressed (pETM plasmid)) MAFATYIKLDKVDGASTDDKHKKWIEVLGFAWGAGNECTMESGTQGLNTGKAMMSVLRVTKWMDCASVKLASAAVQGQNFPTLELEICTQAGDKFAFCIYKFTHVAVSSYQCSGATGGSDRPQETIDFAYKEVTWEYVPQDQNGKAGGKIGPEGWSLITNKKK |  |  | 6 |
| EvpC E15A E26A double mutant, 6His tag at C terminus (pETMevpC E15AE26A) (natural protein, EvpC, Edwardsiella tarda PPD130/91, with E15 and E26 substituted with Ala; The text speaks only of 'double' mutants for the gel filtration; source: expressed (pETM plasmid)) MAFDTYIKLDKVDGASTDDKHKKWIAVLGFAWGAGNECTMESGTQGLNTGKAMMSVLRVTKWMDCASVKLASAAVQGQNFPTLELEICTQAGDKFAFCIYKFTHVAVSSYQCSGATGGSDRPQETIDFAYKEVTWEYVPQDQNGKAGGKIGPEGWSLITNKKK |  |  | 6 |
| EvpC D4A E15A E26A triple mutant (natural protein, EvpC, Edwardsiella tarda PPD130/91, with D4, E15 and E26 substituted with Ala; also called N-terminal triple mutant; N-terminal mutant; source: expressed) MAFATYIKLDKVDGASTDDKHKKWIAVLGFAWGAGNECTMESGTQGLNTGKAMMSVLRVTKWMDCASVKLASAAVQGQNFPTLELEICTQAGDKFAFCIYKFTHVAVSSYQCSGATGGSDRPQETIDFAYKEVTWEYVPQDQNGKAGGKIGPEGWSLITNKKK |  |  | 6 |
| EvpC D4A E26A double mutant, 6His tag at C terminus (pETMevpC D4AE26A) (natural protein, EvpC, Edwardsiella tarda PPD130/91, with D4 and E26 substituted with Ala; The text speaks only of 'double' mutants for the gel filtration; source: expressed (pETM plasmid)) MAFATYIKLDKVDGESTDDKHKKWIAVLGFAWGAGNECTMESGTQGLNTGKAMMSVLRVTKWMDCASVKLASAAVQGQNFPTLELEICTQAGDKFAFCIYKFTHVAVSSYQCSGATGGSDRPQETIDFAYKEVTWEYVPQDQNGKAGGKIGPEGWSLITNKKK |  |  | 6 |
| EvpC C-terminal deletion mutant (EvpC M1-N160), K161 K162 K163 deleted (domain or fragment, EvpC, Edwardsiella tarda PPD130/91, residues M1-N160, lacking the C-terminal K161, K162 and K163; also called EvpC 1-160; C-terminal mutant; source: expressed) MAFDTYIKLDKVDGESTDDKHKKWIEVLGFAWGAGNECTMESGTQGLNTGKAMMSVLRVTKWMDCASVKLASAAVQGQNFPTLELEICTQAGDKFAFCIYKFTHVAVSSYQCSGATGGSDRPQETIDFAYKEVTWEYVPQDQNGKAGGKIGPEGWSLITN |  |  | 6 |
